The assay concerns the target hC3nb1-K57-ScFc (llama | bovine). The experiment in a line: SPR. (In general: In SPR one partner is held on a chip, and binding of the other changes the refractive index at the surface.)

By Kd is commonly meant the free concentration of one partner at which half of the binding sites on the other are occupied at equilibrium, for simple one-to-one binding. human Complement C3 (natural protein): the Kd came to 3.7 nM. In other words, the single-digit nanomolar range.

These data come from publication PMC9154775.
